Measurements: publication PMC9638722, “Light regulates xylem cell differentiation via PIF in Arabidopsis”

T1: PIF4 (Arabidopsis thaliana, UniProt Q8W2F3 1-430)
T1 sequence: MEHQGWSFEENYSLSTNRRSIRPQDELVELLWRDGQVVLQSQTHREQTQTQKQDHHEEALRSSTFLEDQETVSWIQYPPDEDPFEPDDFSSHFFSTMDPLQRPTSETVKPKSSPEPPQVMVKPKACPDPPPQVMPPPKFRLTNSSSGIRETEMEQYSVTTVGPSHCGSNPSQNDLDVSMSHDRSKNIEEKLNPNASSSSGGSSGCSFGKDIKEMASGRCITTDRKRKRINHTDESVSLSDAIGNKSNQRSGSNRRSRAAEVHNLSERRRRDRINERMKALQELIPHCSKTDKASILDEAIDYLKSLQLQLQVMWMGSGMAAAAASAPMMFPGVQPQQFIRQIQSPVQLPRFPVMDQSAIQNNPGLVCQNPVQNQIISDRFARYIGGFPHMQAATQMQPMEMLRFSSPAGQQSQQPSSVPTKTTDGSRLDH


Tests used:
PIF4 [1] = molecular target: T1, PIF4; test: EMSA; positive control; EMSA according to Martinez et al. 2018 with minor modifications, LightShift chemiluminescent kit; buffer, salt, pH and temperature not stated; conditions: protein: ivt; label: 5' biotin; blunt
PIF4 [2] = molecular target: T1, PIF4; test: EMSA; EMSA according to Martinez et al. 2018 with minor modifications, LightShift chemiluminescent kit; buffer, salt, pH and temperature not stated; conditions: protein: ivt; label: 5' biotin (probe); blunt

| Binder | binding result (PIF4 [1]) | binding result (PIF4 [2]) |
| --- | --- | --- |
| pPIL1 G-box (dsDNA) DNA 1: TAATGGCGTGAAGGTTCTTTCCGCTCACGTGGGCCTTTTG DNA 2: CAAAAGGCCCACGTGAGCGGAAAGAACCTTCACGCCATTA | binds |  |
| pCLE44 PBE1 WT (dsDNA) DNA 1: GTAATATAGTGAGGTGGTCACATGTAATGGATTCAATCCAC DNA 2: GTGGATTGAATCCATTACATGTGACCACCTCACTATATTAC |  | binds |
